Assay results from the supplement of paper PMC9170038.

System: MS2 coat protein
Assay: apparent KD of MS2 coat protein; designed switch direction (-1 OFF switch, 1 ON switch): -1; higher = weaker reporter binding
Summary of the method: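 The buffer was Tris-HCl pH 7.5 with KCl, MgCl2, BSA, DTT, tRNA and Tween-20. In it, SNAP-549-labelled MS2 coat protein was titrated in doubling steps from 0.7 or 1.5 nM to 3 µM over chip-bound RNA switches transcribed by stalled E. coli RNA polymerase on Illumina chips. Apparent KD is the per-design median over clusters of curve fits to normalised fluorescence.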

[1] = Eterna round: R95, input ligand: FMN 200 uM
[2] = Eterna round: R95, input ligand: microRNA oligo, concentration not stated
[3] = Eterna round: R95, input ligand: none
[4] = input ligand: microRNA oligo, concentration not stated

| Sequence | apparent KD of MS2 coat protein (input ligand: FMN 200 uM) [nM] | apparent KD of MS2 coat protein (input ligand: none) [nM] | apparent KD of MS2 coat protein [1] [nM] | apparent KD of MS2 coat protein [2] [nM] | apparent KD of MS2 coat protein [3] [nM] | apparent KD of MS2 coat protein [4] [nM] |
| --- | --- | --- | --- | --- | --- | --- |
| AUCCAACAUGAGGAUCACCCAUGUCAGGAUAUACCCAUCUCCACCUAAUCGGUGGUGGGUAGAAGGGAUAUGUC [EX1 B.10] (Eterna round: R97, puzzle: Exclusion 1) | 22.6 | 18.9 |  |  |  |  |
| AUCCAGCGAGGAUAUACUUUGUUUUUUUCGUUUUGUCUCGAACAUGAGGAUCACCCAUGUAGAAGGUGCUUCAC [JR_Ex2_Sub005] (Eterna round: R97, puzzle: Exclusion 2) | 60.8 | 69.7 |  |  |  |  |
| AUCCGUAGGCGCACCUCACACAUGAGGAUCACCCAUGUGCCCUACAAUCGCAAGCUGUGCUCGUUGCUGGUCCCUAC [Eternabot (L1) Solution 16] (Eterna round: R97, puzzle: Sensor, turn-off variant 1) | 45.3 | 48.5 |  |  |  |  |
| AUCCUGUCAGGAUAUCUAGUUAAAUACAUGAGGAUCACCCAUGUCACUGGGCCGUCCUUAAGAGAAGGGACAGGCG [Edabe] (puzzle: Exclusion 5) |  |  | 169 | 34.5 | 39.7 |  |
| AUCCUUAACAAGGAUAUCGGGCGGGAAAUUGUUUGAGAAGGUGUAACAUGAGGAUCACCCAUGUAAAAUAUGAA [-14.9, -13.5 kcal, A 36%] (Eterna round: R97, puzzle: Exclusion 6) | 21.7 | 31.2 |  |  |  |  |
| AUGAGGUUAGGAUAUACAUGAGGAUCACCCAUGUUGAAAGGAUAGAUAAGAAAAGAUAGUAGAAGGAACAAAGA [JR_Exclu3_Sub052] (puzzle: Exclusion 3) |  |  | 34.4 | 34.9 | 39.2 |  |
| AUGCUCCGUGUAGGAUAUCGCCGUACUAUUCGGCGAGAAGGACAUGAGGAUCACCCAUGUAUGUUAUUAUCACGUGUGGCGCGC [Design 48] (Eterna round: R96, puzzle: Exclusion NG 1) | 57 | 18.9 |  |  |  | 14.5 |
| AUGCUCCGUGUAGGAUAUCGCCGUAUUAUUCGGCGAGAAGGACAUGAGGAUCACCCAUGUAUGUUAUUAUCACGUGUGGCGCGC [Design 47] (Eterna round: R96, puzzle: Exclusion NG 1) | 41.8 | 21.8 |  |  |  | 13.6 |
| AUGGGUACUUUCGGAGCGACAUGAGGAUCACCCAUGUAUAUUGAGGAUAUCCACUGCUAAGGACGGGAGAAGGCAGUGUACUGU [Ex NG3 #82] (Eterna round: R96, puzzle: Exclusion NG 3) | 73.3 | 54.2 |  |  |  | 42.9 |
| AUGGUACAUGAGGAUCACCCAUGUUAGGAUAUCGCGUGUUCUAAAACUAAGAGACACACGAGAAGGGACGACAU (puzzle: Exclusion 1) |  |  | 51.5 | 67.8 | 71.4 |  |
| AUGUCGGCAGGAUAUACAUGAGGAUCACCCAUGUAAAUUUUUCGUUUAACUUGAAUGUGUAGAAGGGCCAUGAA [Ex3 #68] (Eterna round: R97, puzzle: Exclusion 3) | 30.9 | 33 |  |  |  |  |
| AUUAAAACAUAGGAUAUCGAAUUUAUCAUUUAACGAGAAGGAUGAACAUGAGGAUCACCCAUGUGGUAUCAUGG [Mat - Exclusion 6 - JL Mod - D6] (puzzle: Exclusion 6) |  |  |  | 165 |  |  |
| AUUAUACAUGUAGGAUAUCUGCACGUGUAGUGCAGAGAAGGACAUGAGGAUCACCCAUGUAGAUCAAUAAUAAUUAAUUUAAUU [ENG1/6-B3] (Eterna round: R96, puzzle: Exclusion NG 1) | 184 | 104 |  |  |  | 96.8 |
| AUUAUAUAGCAAGGAUAUAGAAUAUUAUUUUAACAUGAGGAUCACCCAUGUAACCUUAUGUGUAGCUAGAAGGUGCAUUUAUUA [Title] (Eterna round: R96, puzzle: Exclusion NG 2) |  |  |  |  |  | 64.1 |
| AUUCCUCCUGUUAGGAUAUGCAUCGGGCUUCCGCAGCAGAAGGAACAUGAGGAUCACCCAUGUCAAAUAAAAUC (Eterna round: R97, puzzle: Brourd's mod of Exclusion 4) | 231 | 30.2 |  |  |  |  |
| AUUGAUAGCACAGGAUAUUGAGAUUUGAAUUGACAAGAAGGGUGUACAUGAGGAUCACCCAUGUAAUGGGAGAGUGGUUGAUUA [JR_ExcNG1_Sub002] (Eterna round: R96, puzzle: Exclusion NG 1) | 365 | 582 |  |  |  | 324 |
| AUUGUAGUUGUGAGGAUAUCGUUGAUUUUUUGAAACGAGAAGGCACAUGAGGAUCACCCAUGUAAGUUGUAGGU [JR_BMOE4_Sub055] (puzzle: Brourd's mod of Exclusion 4) |  |  |  | 77.6 |  |  |

| Sequence | apparent KD of MS2 coat protein (input ligand: FMN 200 uM) [nM] | apparent KD of MS2 coat protein (input ligand: none) [nM] | apparent KD of MS2 coat protein [1] [nM] | apparent KD of MS2 coat protein [2] [nM] | apparent KD of MS2 coat protein [3] [nM] | apparent KD of MS2 coat protein [4] [nM] |
| --- | --- | --- | --- | --- | --- | --- |
| AUUGUAUGAUACCUCUAAUACAUGAGGAUCACCCAUGUUAUCGAGGAUAUGCAGAAUAGAUUAGAGCAGAAGGCGAAGUAAUAU [JR_ExcNG3_Sub025] (Eterna round: R96, puzzle: Exclusion NG 3) | 15 | 13.6 |  |  |  | 9.08 |
| AUUGUUUAUGUAGGAUAUGCCUGGCGUGCCUUCGCAGAAGGACAUGAGGAUCACCCAUGUAUUGCGGUCUGCGUUCAGAUCGCU [salish99_ExNG1_r4_025] (Eterna round: R96, puzzle: Exclusion NG 1) | 75 | 55.4 |  |  |  | 30.6 |
| AUUGUUUAUGUAGGAUAUGCCUGGCGUGCCUUUGCAGAAGGACAUGAGGAUCACCCAUGUAACAUGAGGCUCACCCAUGUCGCA [salish99_ExNG1_r04_113] (Eterna round: R96, puzzle: Exclusion NG 1) | 481 | 429 |  |  |  | 255 |
| AUUUAAUUUAGCGAGAUCACAUGAGGAUCACCCAUGUAUAUAUAGGAUAUCAGCUCGUGUAGAGCUGAGAAGGAUAUAUACCGC [ExNG3/7-A3] (Eterna round: R96, puzzle: Exclusion NG 3) | 108 | 88.1 |  |  |  | 72.5 |
| AUUUAGUCAGGAUAUACAUGAGGAUCACCCAUGUAAACUUUUAGUUUAAUUUGAAUGUGUAGAAGGGACAUUUA [Ex3 #46] (Eterna round: R97, puzzle: Exclusion 3) | 26 | 28 |  |  |  |  |
| AUUUAGUGAGGAUAUGUGGCUUCGAUCGUGAGAUCGAGGCUACAGAAGGCACAUGAGGAUCACCCAUGUUCCUG [salish99_ex4_r4_113] (Eterna round: R97, puzzle: Exclusion 4) | 75.7 | 17.5 |  |  |  |  |
| AUUUUAUUCUGAGGAUAUUGAUUAAUCCUCUCACAUGAGGAUCACCCAUGUUUCCGUGUUUACCGCAAGAAGGCAGUUUUGUAU [JR_ExcNG2_Sub025] (Eterna round: R96, puzzle: Exclusion NG 2) | 41.4 | 41 |  |  |  | 35.2 |
| AUUUUGUCAGGAUAUGAGUAGUAGGACGAAAGUGUUAUUAUUUAGAAGGGACAUGAGGAUCACCCAUGUUCCUC [Bring Us a Shrubbery-03] (Eterna round: R96, puzzle: Exclusion 4) | 13.9 | 13.7 |  |  |  | 10.7 |
| AUUUUGUCAGGAUAUGAGUAGUAGGACGAAAGUGUUAUUAUUUAGAAGGGACAUGAGGAUCACCCAUGUUCCUC [Bring Us a Shrubbery-03] (puzzle: Exclusion 4) |  |  |  | 12.1 |  |  |
| AUUUUGUCAGGAUAUGAUUAGUAGGACGAGAGUGCUACUACUUAGAAGGGACAUGAGGAUCACCCAUGUAUUCC [Bring Us a Shrubbery-08] (puzzle: Exclusion 4) |  |  |  | 15 |  |  |
| CAAAAGCUAGGAUAUACAUGAGGAUCACCCAUGUAUAGGUGGGCAGUUCUUAUCAAACGUAGAAGGAGCAUAAA [Uslaisan] (puzzle: Exclusion 3) |  |  | 39.2 | 17.5 | 16.6 |  |
| CAACAACGAGGAUAUACAUGAGGAUCACCCAUGUAAGAAAAGACAUAAACCGCCUGGUGUAGAAGGCGUAAAAC [Xeonesar] (Eterna round: R97, puzzle: Exclusion 3) | 25.2 | 38.2 |  |  |  |  |
| CAACCACAUGAGGAUCACCCAUGUGAGGAUAUGAUACUAUGUACUUCGGUACAUAGUAUCAGAAGGCACAGGUG [Ex1-3: 60] (puzzle: Exclusion 1) |  |  |  | 83.2 |  |  |
| CAACCUCACAACCGUUAAAACAUGAGGAUCACCCAUGUGCCAUAACGGCGCAUGAUCGAGCUAGGCCCGUCCAUGCA [Razaxe] (Eterna round: R96, puzzle: Sensor v2, turn-off variant) | 23.2 | 26.1 |  |  |  | 18.8 |
| CAACUGUGAGGAUAUGGUGAGUAGUGCCUGAGCGCUGCUCACCAGAAGGCACAUGAGGAUCACCCAUGUAUAAC [Mat - Exclusion 4 - Mod of JL - D4] (puzzle: Exclusion 4) |  |  |  | 35.6 |  |  |
| CAAGAUUACUGAGGAUAUCCUAGUUUAUCUCAGGGAGAAGGCGGACUCAACAUGAGGAUCACCCAUGUAAGACGGGUACUAGAG [Ex NG1 #15] (Eterna round: R96, puzzle: Exclusion NG 1) | 84.8 | 43.2 |  |  |  | 68.4 |
| CAAGCUUUUCCAUUUCUAUACAUGAGGAUCACCCAUGUCCCGAGUUGGGUGAGCACUCUGGUCGUCGUUUCUACCAA [Envele] (Eterna round: R96, puzzle: Sensor v2, turn-off variant) | 432 | 278 |  |  |  | 181 |
